Assay results taken from US7501273B2, “Peptidylarginine deiminase 6” (N.V. Organon, priority 2001, dated 2009).

System: Soybean Trypsin Inhibitor (STI)
Assay: Determination of PAD6 enzyme activity: citrullination of STI, read out as trypsin activity on a fluorescent substrate
Assay type: biochemical
Settings: 0.5 or 1.0 μg GST-PAD6, 0.17 μg STI, 30 minutes at 37° C., 5 mM CaCl2; FIG. 5
From the text: Another example of determining the enzymatic activity of PAD6 makes use of the inactivation of a protein e.g. Soybean Trypsin Inhibitor (STI) (Talcahara, H. et al. 1985, J. Biol. Chem. 260, 8378–8383. When an essential arginine in STI is converted into citrulline it is no longer able to inhibit the proteolytic activity of trypsin. This can be used as the basis for a two-step assay for the determination of PAD activity. The assay consists of two steps. In the first reaction PAD converts the arginine (position 63) in STI into a citrulline inactivating the STI. In the second reaction trypsin and a fluorescent substrate are added and trypsin activity is measured.
FIG. 5 Fluorescence measurement to determine PAD activity. STI (0.17 μg) was pre-incubated in the absence (filled square) or presence of 0.5 μg GST-PAD6 (filled triangle), 1.0 μg GST-PAD6 (open triangle), or 0.1 μg rabbit muscle PAD (open square; Sigma cat. No P1584) respectively. Subsequently, Nα-benzoyl-L-Arginine-7-amido-4-methylcoumarin (100 μM; Sigma cat. No. B7260) and trypsin (0.25 μg) were added, and fluorescence determined.
The activity of the PAD was determined by the formation of citrulline in Soybean Trypsin Inhibitor (STI) as a substrate. […] Therefore, an increased activity of trypsin, as detected with a fluorescent trypsin substrate, indicates PAD activity. […]

B1: PAD6: Recombinant full-length human peptidylarginine deiminase 6 (SEQ ID NO:3) expressed in E. coli as GST fusion protein (protein)
chain: MSFQSIIHLSLDSPVHAVCVLGTEICLDLSGCAPQKCQCFTIHGSGRVLIDVANTVISEKEDATIWWPLSDPTYATVKMTSPSPSVDADKVSVTYYGPNEDAPVGTAVLYLTGIEVSLEVDIYRNGQVEMSSDKQAKKKWIWGPSGWGAILLVNCNPADVGQQLEDKKTKKVIFSEEITNLSQMTLNVQGPSCILKKYRLVLHTSKEESKKARVYWPQKDNSSTFELVLGPDQHAYTLALLGNHLKETFYVEAIAFPSAEFSGLISYSVSLVEESQDPSIPETVLYKDTVVFRVAPCVFIPCTQVPLEVYLCRELQLQGFVDTVTKLSEKSNSQVASVYEDPNRLGRWLQDEMAFCYTQAPHKTTSLILDTPQAADLDEFPMKYSLSPGIGYMIQDTEDHKVASMDSIGNLMVSPPVKVQGKEYPLGRVLIGSSFYPSAEGRAMSKTLRDFLYAQQVQAPVELYSDWLMTGHVDEFMCFIPTDDKNEGKKGFLLLLASPSACYKLFREKQKEGYGDALLFDELRADQLLSNGREAKTIDQLLADESLKKQNEYVEKCIHLNRDILKTELGLVEQDIIEIPQLFCLEKLTNIPSDQQPKRSFARPYFPDLLRMIVMGKNLGIPKPFGPQIKGTCCLEEKICCLLEPLGFKCTFINDFDCYLTEVGDICACANIRRVPFAFKWWKMVP
modifications: left off: a dimerising Fc or GST
  PAD activity (increased trypsin activity, fluorescence): could be detected
